Measured values: publication PMC9482650, “Quantitative fragmentomics allow affinity mapping of interactomes” (Nature Communications, 2022)

Assays:
Assay in all cases: holdup assay
Parameters in all cases: key: below the threshold = too weak to quantify, mostly under pKd 3.1 to 4
Settings in all cases: plain residues with an end cap or a label only (N-terminal biotin on a linker: ttds)
PARD3_3, Q8TEW0 = molecular target: PARD3_3, Q8TEW0
Inadl_1, Q8NI35 = molecular target: Inadl_1, Q8NI35
LNX2_2, Q8N448 = molecular target: T1, LNX2_2, Q8N448
T1 sequence (Q8N448 334-432, limits assumed, looked up): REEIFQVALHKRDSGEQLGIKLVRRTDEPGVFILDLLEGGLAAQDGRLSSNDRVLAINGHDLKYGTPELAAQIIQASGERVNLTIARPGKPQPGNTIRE

Inadl_5, Q8NI35 = molecular target: Inadl_5, Q8NI35
MAGI2_2, Q86UL8 = molecular target: MAGI2_2, Q86UL8
MAGI3_2, Q5TCQ9 = molecular target: MAGI3_2, Q5TCQ9
GRIP1_5, Q9Y3R0 = molecular target: T2, GRIP1_5, Q9Y3R0
T2 sequence (Q9Y3R0 568-668, limits assumed, looked up): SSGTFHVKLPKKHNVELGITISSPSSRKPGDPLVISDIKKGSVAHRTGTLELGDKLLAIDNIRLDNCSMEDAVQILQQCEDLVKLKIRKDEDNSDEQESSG

MPP7, Q5T2T1 = molecular target: T3, MPP7, Q5T2T1
T3 sequence (Q5T2T1 134-230, limits assumed, looked up): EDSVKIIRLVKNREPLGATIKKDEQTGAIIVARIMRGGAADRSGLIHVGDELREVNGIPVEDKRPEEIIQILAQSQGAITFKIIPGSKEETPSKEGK

DLG3_2, Q92796 = molecular target: T4, DLG3_2, Q92796
T4 sequence (Q92796 221-321, limits assumed, looked up): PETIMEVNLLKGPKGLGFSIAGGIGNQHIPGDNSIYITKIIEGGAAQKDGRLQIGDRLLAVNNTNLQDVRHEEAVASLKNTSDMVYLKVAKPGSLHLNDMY

DLG1_1, Q12959 = molecular target: DLG1_1, Q12959
ARHGEF12, Q9NZN5-2 = molecular target: ARHGEF12, Q9NZN5-2
MAGI2_4, Q86UL8 = molecular target: MAGI2_4, Q86UL8
SCRIB_2, Q14160 = molecular target: SCRIB_2, Q14160
PTPN13_1, Q12923 = molecular target: T5, PTPN13_1, Q12923
T5 sequence (Q12923 1088-1188, limits assumed, looked up): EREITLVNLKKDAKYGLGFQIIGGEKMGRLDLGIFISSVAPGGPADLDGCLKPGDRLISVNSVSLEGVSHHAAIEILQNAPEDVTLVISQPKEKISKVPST

GRID2IP_1, A4D2P6 = molecular target: GRID2IP_1, A4D2P6
TJP1_3, Q07157 = molecular target: TJP1_3, Q07157
RAPGEF6, Q8TEU7 = molecular target: T6, RAPGEF6, Q8TEU7
T6 sequence (Q8TEU7 525-625, limits assumed, looked up): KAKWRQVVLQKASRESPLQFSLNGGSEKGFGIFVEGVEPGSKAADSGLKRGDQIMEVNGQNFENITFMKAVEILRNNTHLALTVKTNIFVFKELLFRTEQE

GRIP1_2, Q9Y3R0 = molecular target: T7, GRIP1_2, Q9Y3R0
T7 sequence (Q9Y3R0 145-248, limits assumed, looked up): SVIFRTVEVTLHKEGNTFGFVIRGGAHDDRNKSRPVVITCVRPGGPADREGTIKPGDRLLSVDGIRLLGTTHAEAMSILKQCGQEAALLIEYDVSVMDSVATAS

FRMPD2_3, Q68DX3 = molecular target: FRMPD2_3, Q68DX3
MAGI1_1, Q96QZ7 = molecular target: MAGI1_1, Q96QZ7
DFNB31_2, Q9P202 = molecular target: T8, DFNB31_2, Q9P202
T8 sequence (Q9P202 274-371, limits assumed, looked up): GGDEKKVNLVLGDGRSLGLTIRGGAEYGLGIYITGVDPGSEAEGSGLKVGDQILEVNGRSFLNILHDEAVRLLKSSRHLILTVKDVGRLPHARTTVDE

SYNJ2BP, P57105 = molecular target: T9, SYNJ2BP, P57105
T9 sequence (P57105 8-110, limits assumed, looked up): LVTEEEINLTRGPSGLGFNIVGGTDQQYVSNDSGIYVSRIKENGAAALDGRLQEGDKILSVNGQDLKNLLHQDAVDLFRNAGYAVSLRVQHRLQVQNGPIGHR

CARD11, Q9BXL7 = molecular target: T10, CARD11, Q9BXL7
T10 sequence (Q9BXL7 662-765, limits assumed, looked up): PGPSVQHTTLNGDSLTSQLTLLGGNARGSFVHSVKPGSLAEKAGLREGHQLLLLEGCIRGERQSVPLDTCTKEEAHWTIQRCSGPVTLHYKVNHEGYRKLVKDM

DLG4_2, P78352 = molecular target: DLG4_2, P78352
TX1BP3, O14907 = molecular target: T11, TX1BP3, O14907
T11 sequence (O14907 10-122, limits assumed, looked up): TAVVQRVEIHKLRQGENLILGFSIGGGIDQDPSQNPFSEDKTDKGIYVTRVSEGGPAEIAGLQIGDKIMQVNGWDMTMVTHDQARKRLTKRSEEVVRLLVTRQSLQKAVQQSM

CASK, O14936 = molecular target: CASK, O14936
CASK, O14936, sequence (O14936 487-570): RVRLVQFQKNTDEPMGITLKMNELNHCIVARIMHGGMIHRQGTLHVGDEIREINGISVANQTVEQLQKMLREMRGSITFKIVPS

MAGI2_2, Q86UL8, sequence (Q86UL8 410-522): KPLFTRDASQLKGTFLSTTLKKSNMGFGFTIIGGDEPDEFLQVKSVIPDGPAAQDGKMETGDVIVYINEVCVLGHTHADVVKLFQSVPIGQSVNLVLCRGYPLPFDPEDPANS
TJP1_3, Q07157, sequence (Q07157 416-512): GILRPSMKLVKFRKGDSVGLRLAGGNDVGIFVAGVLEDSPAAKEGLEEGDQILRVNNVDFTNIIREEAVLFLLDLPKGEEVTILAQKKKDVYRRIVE
MAGI1_1, Q96QZ7, sequence (Q96QZ7 1-106): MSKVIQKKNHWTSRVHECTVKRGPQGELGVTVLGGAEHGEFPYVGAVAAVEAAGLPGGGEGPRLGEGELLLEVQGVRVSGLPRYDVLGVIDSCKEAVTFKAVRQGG
ARHGEF12, Q9NZN5-2, sequence (Q9NZN5 other isoform, or with tags, fused parts or gaps): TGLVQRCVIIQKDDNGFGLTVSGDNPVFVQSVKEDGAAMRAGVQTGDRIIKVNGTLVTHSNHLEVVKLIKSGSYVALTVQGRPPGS
FRMPD2_3, Q68DX3, sequence (Q68DX3 1073-1166): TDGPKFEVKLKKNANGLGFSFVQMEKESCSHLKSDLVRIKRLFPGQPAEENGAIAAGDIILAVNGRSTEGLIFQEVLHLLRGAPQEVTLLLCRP
GRID2IP_1, A4D2P6, sequence (A4D2P6 1-87): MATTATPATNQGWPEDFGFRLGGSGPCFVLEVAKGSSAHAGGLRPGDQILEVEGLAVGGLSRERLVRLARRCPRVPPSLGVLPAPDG
Inadl_5, Q8NI35, sequence (Q8NI35 673-780): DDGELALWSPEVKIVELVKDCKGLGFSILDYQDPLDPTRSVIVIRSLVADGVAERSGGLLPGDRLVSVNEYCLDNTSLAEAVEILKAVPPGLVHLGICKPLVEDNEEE
DLG4_2, P78352, sequence (P78352 155-259): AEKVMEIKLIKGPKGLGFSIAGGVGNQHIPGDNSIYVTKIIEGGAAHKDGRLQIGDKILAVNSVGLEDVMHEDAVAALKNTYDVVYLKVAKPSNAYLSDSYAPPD
SCRIB_2, Q14160, sequence (Q14160 857-960): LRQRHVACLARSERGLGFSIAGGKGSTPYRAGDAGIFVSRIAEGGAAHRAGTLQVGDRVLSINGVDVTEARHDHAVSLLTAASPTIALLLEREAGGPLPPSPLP
PARD3_3, Q8TEW0, sequence (Q8TEW0 582-685): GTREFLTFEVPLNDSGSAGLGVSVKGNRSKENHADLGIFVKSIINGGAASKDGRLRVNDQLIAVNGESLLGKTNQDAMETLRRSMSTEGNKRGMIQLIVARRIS
MAGI2_4, Q86UL8, sequence (Q86UL8 772-865): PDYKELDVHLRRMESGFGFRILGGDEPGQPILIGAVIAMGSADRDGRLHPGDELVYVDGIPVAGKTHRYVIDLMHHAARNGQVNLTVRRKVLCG
Inadl_1, Q8NI35, sequence (Q8NI35 113-229): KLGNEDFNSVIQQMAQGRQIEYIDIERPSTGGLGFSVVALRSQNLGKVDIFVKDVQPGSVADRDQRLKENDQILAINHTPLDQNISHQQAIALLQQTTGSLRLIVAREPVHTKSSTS
MAGI3_2, Q5TCQ9, sequence (Q5TCQ9 398-503): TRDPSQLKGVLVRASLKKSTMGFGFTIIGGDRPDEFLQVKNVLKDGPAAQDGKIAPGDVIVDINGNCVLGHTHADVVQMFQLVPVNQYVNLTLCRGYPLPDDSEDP

Row | Binder | pKd (PARD3_3, Q8TEW0) | pKd (Inadl_1, Q8NI35) | pKd (LNX2_2, Q8N448) | pKd (Inadl_5, Q8NI35) | pKd (MAGI2_2, Q86UL8) | pKd (MAGI3_2, Q5TCQ9) | pKd (GRIP1_5, Q9Y3R0) | pKd (MPP7, Q5T2T1) | pKd (DLG3_2, Q92796) | pKd (DLG1_1, Q12959) | pKd (ARHGEF12, Q9NZN5-2) | pKd (MAGI2_4, Q86UL8) | pKd (SCRIB_2, Q14160) | pKd (PTPN13_1, Q12923) | pKd (GRID2IP_1, A4D2P6) | pKd (TJP1_3, Q07157) | pKd (RAPGEF6, Q8TEU7) | pKd (GRIP1_2, Q9Y3R0) | pKd (FRMPD2_3, Q68DX3) | pKd (MAGI1_1, Q96QZ7) | further results
1 | GQDSREETQL [KCNT2, Q6UVM3] | 4.04 | below the threshold | below the threshold | below the threshold | below the threshold | 3.91 | below the threshold | below the threshold | 4 | below the threshold | 4.67 | below the threshold | 3.83 | below the threshold | below the threshold | below the threshold | below the threshold | below the threshold | below the threshold | below the threshold | pKd (DFNB31_2, Q9P202): below the threshold; pKd (SYNJ2BP, P57105): 4.62; pKd (CARD11, Q9BXL7): below the threshold; pKd (DLG4_2, P78352): 3.62; pKd (TX1BP3, O14907): 3.83; pKd (CASK, O14936): below the threshold
2 | VLRLQSETSV [VANGL1, Q8TAA9] | below the threshold | below the threshold | 4.15 | below the threshold | 4.47 | 5.14 | below the threshold | below the threshold | 4.64 | 4.45 | 3.7 | 4.42 | 4.72 | below the threshold | below the threshold | below the threshold | below the threshold | below the threshold | below the threshold | below the threshold | pKd (DFNB31_2, Q9P202): below the threshold; pKd (SYNJ2BP, P57105): 5.41; pKd (CARD11, Q9BXL7): below the threshold; pKd (DLG4_2, P78352): 4.71; pKd (TX1BP3, O14907): 4.21; pKd (CASK, O14936): below the threshold
3 | IDNDTESTAL [ARHGAP17, Q68EM7] | below the threshold | below the threshold | below the threshold | below the threshold | below the threshold | below the threshold | below the threshold | below the threshold | below the threshold | below the threshold | 4.77 | below the threshold | 3.61 | below the threshold | below the threshold | below the threshold | below the threshold | below the threshold | below the threshold | below the threshold | pKd (DFNB31_2, Q9P202): below the threshold; pKd (SYNJ2BP, P57105): 4.01; pKd (CARD11, Q9BXL7): below the threshold; pKd (DLG4_2, P78352): below the threshold; pKd (TX1BP3, O14907): below the threshold; pKd (CASK, O14936): below the threshold
